Source: patent US20230340128A1 (Xencor, published 2023)
Like-named read-outs stand apart in the source and are kept apart here.

Tests used:
[1] = molecular target: T1, MSLN on OVCAR8 cells (~90K MSLN antigens/cell) (UniProt Q13421 296-598); assay: binding to OVCAR8 cells, MFI APC against mAb concentration
[2] = molecular target: T2, human mesothelin (MSLN) (human, UniProt Q13421 296-580, limits assumed); assay: BLI (Octet), bsAb in 1+1 Fab-scFv-Fc format
T2 construct: Antigen of the Octet KD values

[3] = molecular target: T2, human mesothelin (MSLN); assay: BLI (Octet), multiple concentrations, bsAb in 1+1 Fab-scFv-Fc format; lower table, column 'human MSLN (M)'
[4] = molecular target: T2, human mesothelin (MSLN); assay: KD quoted in the FIG. 25 legend; Octet (BLI) per FIGS. 20-21
[5] = molecular target: T1, MSLN on OVCAR8 cells (~90K MSLN …); assay: binding to OVCAR8 cells, MFI APC against mAb concentration; remark: listed apart in the source
[6] = molecular target: T1, MSLN on OVCAR8 cells (~90K MSLN …); assay: as above; remark: listed apart in the source

Binder	EC50 (read off the curve) [1]	Kd [3]	Kd [4]	EC50 (read off the curve) [6]	further results
XENP32561 (bispecific antibody) chain 1: QVQLVQSGAEVKKPGASVKVSCKASGYTFTSYWMHWVRQAPGQGLEWMGMIHPNSDNTIYYEKFQGRVTMTVDKSISTAYMELSRLRSDDTAVYYCAIIITPVVPKFDYWGQGTLVTVSSASTKGPSVFPLAPSSKSTSGGTAALGCLVKDYFPEPVTVSWNSGALTSGVHTFPAVLQSSGLYSLSSVVTVPSSSLGTQTYICNVNHKPSDTKVDKKVEPKSCDKTHTCPPCPAPPVAGPSVFLFPPKPKDTLMISRTPEVTCVVVDVKHEDPEVKFNWYVDGVEVHNAKTKPREEEYNSTYRVVSVLTVLHQDWLNGKEYKCKVSNKALPAPIEKTISKAKGQPREPQVYTLPPSREEMTKNQVSLTCDVSGFYPSDIAVEWESDGQPENNYKTTPPVLDSDGSFFLYSKLTVDKSRWEQGDVFSCSVMHEALHNHYTQKSLSLSPGK chain 2: not shown chain 3: DIVMTQSPDSLAVSLGERATINCKASHSVGTSVAWYQQKPGQSPKLLIYWASTRHTGVPDRFTGSGSGTDFTLTISSLQAEDVAVYFCQQYSSYPLTFGAGTKLEIKRTVAAPSVFIFPPSDEQLKSGTASVVCLLNNFYPREAKVQWKVDNALQSGNSQESVTEQDSKDSTYSLSSTLTLSKADYEKHKVYACEVTHQGLSSPVTKSFNRGEC	~0.2 µg/mL	0.45 nM	–	–	Kd [2]: 0.355 nM; Response [2]: 1.08; koff [2]: 0.000215 s⁻¹; kon [2]: 606000 M⁻¹ s⁻¹
XENP32745 (bispecific antibody) chain 1: QVQLVQSGAEVKKPGASVKVSCKASGYTFTSYWMHWVRQAPGQGLEWMGMIHPNSDNTIYYEKFQGRVTMTVDKSISTAYMELSRLRSDDTAVYYCAIIITPVVPKFDYWGQGTLVTVSSASTKGPSVFPLAPSSKSTSGGTAALGCLVKDYFPEPVTVSWNSGALTSGVHTFPAVLQSSGLYSLSSVVTVPSSSLGTQTYICNVNHKPSDTKVDKKVEPKSCDKTHTCPPCPAPPVAGPSVFLFPPKPKDTLMISRTPEVTCVVVDVKHEDPEVKFNWYVDGVEVHNAKTKPREEEYNSTYRVVSVLTVLHQDWLNGKEYKCKVSNKALPAPIEKTISKAKGQPREPQVYTLPPSREEMTKNQVSLTCDVSGFYPSDIAVEWESDGQPENNYKTTPPVLDSDGSFFLYSKLTVDKSRWEQGDVFSCSVMHEALHNHYTQKSLSLSPGK chain 2: QVQLVQSGAEVKKPGASVKVSCKASGYTFTSYWMHWVRQAPGQGLEWMGMIHPNSDNTIYYEKFQGRVTMTVDKSISTAYMELSRLRSDDTAVYYCAIIITPVVPKFDYWGQGTLVTVSSASTKGPSVFPLAPSSKSTSGGTAALGCLVKDYFPEPVTVSWNSGALTSGVHTFPAVLQSSGLYSLSSVVTVPSSSLGTQTYICNVNHKPSNTKVDKKVEPKSCGGGGSGGGGSQAVVTQEPSLTVSPGGTVTLTCGSSTGAVTTSNYANWVQQKPGKSPRGLIGGTNKRAPGVPARFSGSLLGGKAALTISGAQPEDEADYYCALWYSNHWVFGGGTKLTVLGKPGSGKPGSGKPGSGKPGSEVQLVESGGGLVQPGGSLRLSCAASGFTFSTYAMNWVRQAPGKGLEWVGRIRSKANNYATYYADSVKGRFTISRDDSKNTLYLQMNSLRAEDTAVYYCVRHGNFGDSYVSWFAYWGQGTLVTVSSGGGGSGGGGSKTHTCPPCPAPPVAGPSVFLFPPKPKDTLMISRTPEVTCVVVDVKHEDPEVKFNWYVDGVEVHNAKTKPREEQYNSTYRVVSVLTVLHQDWLNGKEYKCKVSNKALPAPIEKTISKAKGQPREPQVYTLPPSREQMTKNQVKLTCLVKGFYPSDIAVEWESNGQPENNYKTTPPVLDSDGSFFLYSKLTVDKSRWQQGNVFSCSVMHEALHNHYTQKSLSLSPGK chain 3: DIVMTQSPDSLAVSLGERATINCKASHSVGTSVAWYQQKPGQSPKLLIYWASTRHTGVPDRFTGSGSGTDFTLTISSLQAEDVAVYFCQQYSSYPLTFGAGTKLEIKRTVAAPSVFIFPPSDEQLKSGTASVVCLLNNFYPREAKVQWKVDNALQSGNSQESVTEQDSKDSTYSLSSTLTLSKADYEKHKVYACEVTHQGLSSPVTKSFNRGEC	~0.05 µg/mL	–	0.45 nM	–	–
XENP32748 (bispecific antibody) chain 1: QVQLVQSGAEVKKPGASVKVSCKASGYTFTSYWMHWVRQAPGQGLEWMGMIHPNSDNTIYYEKFQGRVTMTVDKSISTAYMELSRLRSDDTAVYYCAIIITPVVPKFDYWGQGTLVTVSSASTKGPSVFPLAPSSKSTSGGTAALGCLVKDYFPEPVTVSWNSGALTSGVHTFPAVLQSSGLYSLSSVVTVPSSSLGTQTYICNVNHKPSDTKVDKKVEPKSCDKTHTCPPCPAPPVAGPSVFLFPPKPKDTLMISRTPEVTCVVVDVKHEDPEVKFNWYVDGVEVHNAKTKPREEEYNSTYRVVSVLTVLHQDWLNGKEYKCKVSNKALPAPIEKTISKAKGQPREPQVYTLPPSREEMTKNQVSLTCDVSGFYPSDIAVEWESDGQPENNYKTTPPVLDSDGSFFLYSKLTVDKSRWEQGDVFSCSVMHEALHNHYTQKSLSLSPGK chain 2: QVQLVQSGAEVKKPGASVKVSCKASGYTFTSYWMHWVRQAPGQGLEWMGMIHPNSDNTIYYEKFQGRVTMTVDKSISTAYMELSRLRSDDTAVYYCAIIITPVVPKFDYWGQGTLVTVSSASTKGPSVFPLAPSSKSTSGGTAALGCLVKDYFPEPVTVSWNSGALTSGVHTFPAVLQSSGLYSLSSVVTVPSSSLGTQTYICNVNHKPSNTKVDKKVEPKSCGGGGSGGGGSQAVVTQEPSLTVSPGGTVTLTCGSSTGAVTTSNYANWVQQKPGKSPRGLIGGTNKRAPGVPARFSGSLLGGKAALTISGAQPEDEADYYCALWYSNHWVFGGGTKLTVLGKPGSGKPGSGKPGSGKPGSEVQLVESGGGLVQPGGSLRLSCAASGFTFSTYAMNWVRQAPGKGLEWVGRIRSKANNYATYYADSVKGRFTISRDDSKNTLYLQMNSLRAEDTAVYYCVRHGNFGDSYVSWFAYWGQGTLVTVSSGGGGSGGGGSKTHTCPPCPAPPVAGPSVFLFPPKPKDTLMISRTPEVTCVVVDVKHEDPEVKFNWYVDGVEVHNAKTKPREEQYNSTYRVVSVLTVLHQDWLNGKEYKCKVSNKALPAPIEKTISKAKGQPREPQVYTLPPSREQMTKNQVKLTCLVKGFYPSDIAVEWESNGQPENNYKTTPPVLDSDGSFFLYSKLTVDKSRWQQGNVFSCSVMHEALHNHYTQKSLSLSPGK chain 3: DIVMTQSPDSLAVSLGERATINCKASHDVLTSVAWYQQKPGQSPKLLIYWASTRHTGVPDRFTGSGSGTDFTLTISSLQAEDVAVYFCQQYSSYPLTFGAGTKLEIKRTVAAPSVFIFPPSDEQLKSGTASVVCLLNNFYPREAKVQWKVDNALQSGNSQESVTEQDSKDSTYSLSSTLTLSKADYEKHKVYACEVTHQGLSSPVTKSFNRGEC	–	–	0.74 nM	–	EC50 (read off the curve) [5]: ~0.04 µg/mL
XENP31697 (bispecific antibody) chain 1: QVQLVQSGAEVKKPGASVKVSCKASGYTFTSYWMHWVRQAPGQGLEWMGMIHPNSDNTIYYEKFQGRVTMTVDKSISTAYMELSRLRSDDTAVYYCAIIITPVVPKFDYWGQGTLVTVSSASTKGPSVFPLAPSSKSTSGGTAALGCLVKDYFPEPVTVSWNSGALTSGVHTFPAVLQSSGLYSLSSVVTVPSSSLGTQTYICNVNHKPSDTKVDKKVEPKSCDKTHTCPPCPAPPVAGPSVFLFPPKPKDTLMISRTPEVTCVVVDVKHEDPEVKFNWYVDGVEVHNAKTKPREEEYNSTYRVVSVLTVLHQDWLNGKEYKCKVSNKALPAPIEKTISKAKGQPREPQVYTLPPSREEMTKNQVSLTCDVSGFYPSDIAVEWESDGQPENNYKTTPPVLDSDGSFFLYSKLTVDKSRWEQGDVFSCSVMHEALHNHYTQKSLSLSPGK chain 2: not shown chain 3: DIVMTQSPDSLAVSLGERATINCKASHDVGTSVAWYQQKPGQSPKLLIYWASTRHTGVPDRFTGSGSGTDFTLTISSLQAEDVAVYFCQQYSSYPLTFGAGTKLEIKRTVAAPSVFIFPPSDEQLKSGTASVVCLLNNFYPREAKVQWKVDNALQSGNSQESVTEQDSKDSTYSLSSTLTLSKADYEKHKVYACEVTHQGLSSPVTKSFNRGEC	–	0.28 nM	–	~0.07 µg/mL	–
XENP31717 (bispecific antibody) chain 1: QVQLVQSGAEVKKPGASVKVSCKASGYTFTSYWMHWVRQAPGQGLEWMGMIHPNSDNTIYYEKFQGRVTMTVDKSISTAYMELSRLRSDDTAVYYCAIIITPVVPKFDYWGQGTLVTVSSASTKGPSVFPLAPSSKSTSGGTAALGCLVKDYFPEPVTVSWNSGALTSGVHTFPAVLQSSGLYSLSSVVTVPSSSLGTQTYICNVNHKPSDTKVDKKVEPKSCDKTHTCPPCPAPPVAGPSVFLFPPKPKDTLMISRTPEVTCVVVDVKHEDPEVKFNWYVDGVEVHNAKTKPREEEYNSTYRVVSVLTVLHQDWLNGKEYKCKVSNKALPAPIEKTISKAKGQPREPQVYTLPPSREEMTKNQVSLTCDVSGFYPSDIAVEWESDGQPENNYKTTPPVLDSDGSFFLYSKLTVDKSRWEQGDVFSCSVMHEALHNHYTQKSLSLSPGK chain 2: QVQLVQSGAEVKKPGASVKVSCKASGYTFTSYWMHWVRQAPGQGLEWMGMIHPNSDNTIYYEKFQGRVTMTVDKSISTAYMELSRLRSDDTAVYYCAIIITPVVPKFDYWGQGTLVTVSSASTKGPSVFPLAPSSKSTSGGTAALGCLVKDYFPEPVTVSWNSGALTSGVHTFPAVLQSSGLYSLSSVVTVPSSSLGTQTYICNVNHKPSNTKVDKKVEPKSCGGGGSGGGGSQAVVTQEPSLTVSPGGTVTLTCGSSTGAVTTSNYANWVQQKPGKSPRGLIGGTNKRAPGVPARFSGSLLGGKAALTISGAQPEDEADYYCALWYSNHWVFGGGTKLTVLGKPGSGKPGSGKPGSGKPGSEVQLVESGGGLVQPGGSLRLSCAASGFTFSTYAMNWVRQAPGKGLEWVGRIRSKANNYATYYADSVKGRFTISRDDSKNTLYLQMNSLRAEDTAVYYCVRHGNFGDSYVSWFAYWGQGTLVTVSSGGGGSGGGGSKTHTCPPCPAPPVAGPSVFLFPPKPKDTLMISRTPEVTCVVVDVKHEDPEVKFNWYVDGVEVHNAKTKPREEQYNSTYRVVSVLTVLHQDWLNGKEYKCKVSNKALPAPIEKTISKAKGQPREPQVYTLPPSREQMTKNQVKLTCLVKGFYPSDIAVEWESNGQPENNYKTTPPVLDSDGSFFLYSKLTVDKSRWQQGNVFSCSVMHEALHNHYTQKSLSLSPGK chain 3: DIVMTQSPDSLAVSLGERATINCKASHDVGTSVAWYQQKPGQSPKLLIYWASTRHTGVPDRFTGSGSGTDFTLTISSLQAEDVAVYFCQQYSSYPLTFGAGTKLEIKRTVAAPSVFIFPPSDEQLKSGTASVVCLLNNFYPREAKVQWKVDNALQSGNSQESVTEQDSKDSTYSLSSTLTLSKADYEKHKVYACEVTHQGLSSPVTKSFNRGEC	–	–	0.28 nM	~0.04 µg/mL	–
